Assay results published in US20110311550A1 (Scripps Research, published 2011).

Tests used:
Experiment in all cases: ELISA, lectin-captured E1E2 lysate, Ab 1 ug/ml;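 further: E1E2 captured on Galanthus nivalis lectin-coated plates, bound test antibody read out by an HRP-linked secondary antibody and TMB colour development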
[1] = target: E1E2 complex (H77) with E1 mutation N325A (HCV genotype 1a, isolate H77, UniProt P27958 192-383; P27958 384-746)
[2] = target: E1E2 complex (H77) with E1 mutation V227A (HCV genotype 1a, isolate H77, UniProt P27958 192-383; P27958 384-746)
[3] = target: E1E2 complex (H77) with E1 mutation P295A (HCV genotype 1a, isolate H77, UniProt P27958 192-383; P27958 384-746)
[4] = target: E1E2 complex (H77) with E1 mutation R296A (HCV genotype 1a, isolate H77, UniProt P27958 192-383; P27958 384-746)
[5] = target: E1E2 complex (H77) with E1 mutation N305A/N234A (HCV genotype 1a, isolate H77, UniProt P27958 192-383; P27958 384-746)
[6] = target: E1E2 complex (H77) with E1 mutation I212A (HCV genotype 1a, isolate H77, UniProt P27958 192-383; P27958 384-746)
[7] = target: E1E2 complex (H77) with E1 mutation S273A (HCV genotype 1a, isolate H77, UniProt P27958 192-383; P27958 384-746)
[8] = target: E1E2 complex (H77) with E1 mutation S327A (HCV genotype 1a, isolate H77, UniProt P27958 192-383; P27958 384-746)
[9] = target: E1E2 complex (H77) with E1 mutation N196A/N234A (HCV genotype 1a, isolate H77, UniProt P27958 192-383; P27958 384-746)
[10] = target: E1E2 complex (H77) with E1 mutation T204A (HCV genotype 1a, isolate H77, UniProt P27958 192-383; P27958 384-746)
[11] = target: E1E2 complex (H77) with E1 mutation T292A (HCV genotype 1a, isolate H77, UniProt P27958 192-383; P27958 384-746)
[12] = target: E1E2 complex (H77) with E1 mutation R195A (HCV genotype 1a, isolate H77, UniProt P27958 192-383; P27958 384-746)
[13] = target: E1E2 complex (H77) with E1 mutation N196A/N305A (HCV genotype 1a, isolate H77, UniProt P27958 192-383; P27958 384-746)
[14] = target: E1E2 complex (H77) with E1 mutation S294A (HCV genotype 1a, isolate H77, UniProt P27958 192-383; P27958 384-746)
[15] = target: E1E2 complex (H77) with E1 mutation H222A (HCV genotype 1a, isolate H77, UniProt P27958 192-383; P27958 384-746)
[16] = target: E1E2 complex (H77) with E1 mutation F293A (HCV genotype 1a, isolate H77, UniProt P27958 192-383; P27958 384-746)
[17] = target: E1E2 complex (H77) with E1 mutation H352A (HCV genotype 1a, isolate H77, UniProt P27958 192-383; P27958 384-746)
[18] = target: E1E2 complex (H77) with E1 mutation H261A (HCV genotype 1a, isolate H77, UniProt P27958 192-383; P27958 384-746)
[19] = target: E1E2 complex (H77) with E1 mutation M323A (HCV genotype 1a, isolate H77, UniProt P27958 192-383; P27958 384-746)
[20] = target: E1E2 complex (H77) with E1 mutation N234A (HCV genotype 1a, isolate H77, UniProt P27958 192-383; P27958 384-746)
[21] = target: E1E2 complex (H77) with E1 mutation M322A (HCV genotype 1a, isolate H77, UniProt P27958 192-383; P27958 384-746)
[22] = target: E1E2 complex (H77) with E1 mutation S307A (HCV genotype 1a, isolate H77, UniProt P27958 192-383; P27958 384-746)

B1: N4 IgG (antibody, V domains shown)
VH: VQLLEQSGPEVKKPGDSLRISCKMSGDSLVTTWIGWVRQKPGQGLEWMGIINPGDSSTNIYPGDSATRYGPSFQGQVTISIDKSTSTAYLQWNNVKASDTGIYYCARHVPVPISGTFLWREREMHDFGYFDDWGQGTLVIVSS
VL: ELTLTQSPGTLSLSPGERATLSCRASQSVSNNYLAWYQQKPGQAPRLLIYGASSRATGIPDRFSGSGSGTGFTLIISRLEPEDFAVYYCQQYGSSSITFGQGTRLEIKR
notes: also called IgG N4
For B1, the “Binding relative to wt (%)” value [1] was 150%, the “Binding relative to wt (%)” value [2] was 98% and the “Binding relative to wt (%)” value [3] was 82%. The “Binding relative to wt (%)” value [4] was 138%, the “Binding relative to wt (%)” value [5] was 30% and the “Binding relative to wt (%)” value [6] was 51%. For the same binder, the “Binding relative to wt (%)” value [7] was 70%, the “Binding relative to wt (%)” value [8] was 69% and the “Binding relative to wt (%)” value [9] was 32%. The “Binding relative to wt (%)” value [10] was 24%, the “Binding relative to wt (%)” value [11] was 104% and the “Binding relative to wt (%)” value [12] was 121%. The “Binding relative to wt (%)” value [13] was 4%, the “Binding relative to wt (%)” value [14] was 71% and the “Binding relative to wt (%)” value [15] was 44%. For the same binder, the “Binding relative to wt (%)” value [16] was 95%, the “Binding relative to wt (%)” value [17] was 60% and the “Binding relative to wt (%)” value [18] was 106%. The “Binding relative to wt (%)” value [19] was 99%, the “Binding relative to wt (%)” value [20] was 114% and the “Binding relative to wt (%)” value [21] was 143%. For the same binder, the “Binding relative to wt (%)” value [22] was 58%.
